From FireProtDB (doi:10.1016/0022-2836(92)90564-z)
Values joined by “and” are separate entries in the source; they are usually repeats but may differ in a detail not shown here. Equal values may be shown once.

B1: Ribonuclease, P00648 (parent)
chain: MMKMEGIALKKRLSWISVCLLVLVSAAGMLFSTAAKTETSSHKAHTEAQVINTFDGVADYLQTYHKLPDNYITKSEAQALGWVASKGNLADVAPGKSIGGDIFSNREGKLPGKSGRTWREADINYTSGFRNSDRILYSSDWLIYKTTDHYQTFTKIR

Variants of: B1
Conditions: Bacillus amyloliquefaciens; pH 6.3; 25 °C; Urea; Fluorescence; MES 1.00 M; NaCl 613 mM; reversible: yes; structure 1BNI; whole UniProt chain shown

Point of comparison: V83A, “ddG of mutation (higher = less stable)” value 1.34 kcal/mol. Against it:
- I72V — lower, 1.18 kcal/mol
- I156V — lower, 0.82 kcal/mol
- K109R — lower, 0.43 kcal/mol
- N124A — higher, 1.88 kcal/mol
- I143A — higher, 2.37 kcal/mol
- I123V — lower, 0.88 kcal/mol
- N52A — higher, 2.06 kcal/mol
- N88D — higher, 2.51 kcal/mol
- I98V — higher, 1.85 kcal/mol
- L136V — lower, 0.03 kcal/mol
- E76G — higher, 1.9 kcal/mol
- N131A — higher, 2.24 kcal/mol
- V92A — higher, 1.83 kcal/mol
- V92T — higher, 2.44 kcal/mol
- S139A — higher, 2.74 kcal/mol
- I51V — lower, 0.67 kcal/mol
- D101A — higher, 3.1 kcal/mol
- D101N — higher, 2.42 kcal/mol
- I102A — lower, 1.28 kcal/mol
- I102T — lower, 1 kcal/mol
- V57A — higher, 3.63 kcal/mol
- V57T — higher, 2.58 kcal/mol
- I135A — higher, 2.76 kcal/mol
- S138A — higher, 1.93 kcal/mol
- N105A — higher, 2.17 kcal/mol
- T152V — higher, 2.25 kcal/mol

With I156A the “ddG of mutation (higher = less stable)” value was 2.22 kcal/mol and 1.4 kcal/mol.
For I123A, the “ddG of mutation (higher = less stable)” value was 2.04 kcal/mol and 1.16 kcal/mol.
In the case of L136T, the “ddG of mutation (higher = less stable)” value is reported as 2.9 kcal/mol and 2.55 kcal/mol.
With I51A the “ddG of mutation (higher = less stable)” value was 1.5 kcal/mol and 0.83 kcal/mol.
